Target: T1, Ecdysteroid receptor (EcR), ligand binding part (C-terminus of D- and E-domain) (UniProt P34021 400-655)
T1 sequence (looked up): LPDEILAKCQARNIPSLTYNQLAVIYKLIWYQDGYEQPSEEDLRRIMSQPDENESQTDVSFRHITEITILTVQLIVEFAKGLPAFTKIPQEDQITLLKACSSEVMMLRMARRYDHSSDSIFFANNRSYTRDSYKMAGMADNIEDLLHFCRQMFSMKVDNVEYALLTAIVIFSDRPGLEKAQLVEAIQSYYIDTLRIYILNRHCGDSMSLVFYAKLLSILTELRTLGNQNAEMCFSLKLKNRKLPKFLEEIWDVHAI
Test: native gel or EMSA

B1: Ultraspiracle (USP), ligand binding part (C-terminus of D- and E-domain) (domain or fragment, UniProt P20153 230-508, looked up)
chain: MTNSVSRDFSIERIIEAEQRAETQCGDRALTFLRVGPYSTVQPDYKGAVSALCQVVNKQLFQMVEYARMMPHFAQVPLDDQVILLKAAWIELLIANVAWCSIVSLDDGGAGGGGGGLGHDGSFERRSPGLQPQQLFLNQSFSYHRNSAIKAGVSAIFDRILSELSVKMKRLNLDRRELSCLKAIILYNPDIRGIKSRAEIEMCREKVYACLDEHCRLEHPGDDGRFAQLLLRLPALRSISLKCQDHLFLFRITSDRPLEELFLEQLEAPPPPGLAMKLE
With B1 as the binder, how does the “fold of the affinity constant of heterodimerization against homodimerization” value read?
Its value is roughly 10 fold.
